Experimental data as given in article PMC7954794, “Protein context shapes the specificity of SH3 domain-mediated interactions in vivo” (Nature Communications, 2021).

System: PPIs identified as affected by the SH3 domain deletions
Experiment: Liquid DHFR-PCA low-throughput validation of PPIs affected by SH3 deletion (Fig. S1D-E)
Assay type: cell-based, Saccharomyces cerevisiae
Settings: label = prey, liquid DHFR-PCA, prey _1 = lost, _2 = gained in screen
How it was run: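 Yeast diploids from DHFR-PCA mating grown 48 h in synthetic complete MSG medium pH 6.0 with NAT and HPH, normalized to 1 OD and diluted to 0.1 OD in liquid PCA selection medium. Growth followed by OD every 15 min for 72 h at 30 °C.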

B1: YCR002C_1 (protein, UniProt P25342 1-322, looked up)
Cell division control protein …: MDPLSSVQPASYVGFDTITNQIEHRLLKKGFQFNIMVVGQSGLGKSTLINTLFASHLIDSATGDDISALPVTKTTEMKISTHTLVEDRVRLNINVIDTPGFGDFIDNSKAWEPIVKYIKEQHSQYLRKELTAQRERFITDTRVHAILYFLQPNGKELSRLDVEALKRLTEIANVIPVIGKSDTLTLDERTEFRELIQNEFEKYNFKIYPYDSEELTDEELELNRSVRSIIPFAVVGSENEIEINGETFRGRKTRWSAINVEDINQCDFVYLREFLIRTHLQDLIETTSYIHYEGFRARQLIALKENANSRSSAHMSSNAIQR
- Ratio (Deletedscore / WTscore) (bait BEM1-2): 0.5157
- Ratio (Deletedscore / WTscore) (bait BOI1): 0.9522
- Ratio (Deletedscore / WTscore) (bait NBP2): 0.7856
- Ratio (Deletedscore / WTscore) (bait RVS167): 0.8283

B2: YER008C_1 (protein, UniProt P33332 1-1336, looked up)
Exocyst complex component SEC3: MRSSKSPFKRKSHSRETSHDENTSFFHKRTISGSSAHHSRNVSQGAVPSSAPPVSGGNYSHKRNVSRASNSSQTSNFLAEQYERDRKAIINCCFSRPDHKTGEPPNNYITHVRIIEDSKFPSSRPPPDSKLENKKKRLLILSAKPNNAKLIQIHKARENSDGSFQIGRTWQLTELVRVEKDLEISEGFILTMSKKYYWETNSAKERTVFIKSLITLYIQTFEGHVPELVNWDLSLFYLDERSYQRAVITNRPGSVSPIKSPTSNFTTNTTQSVGSVPFSAPTERTRRSETESVNPVSTPASVEYHAGMKSLNKAPYSSNSTLNEVNKRYELEQQQQQEEAELRRLEEQKRLQLQKENEMKRLEEERRIKQEERKRQMELEHQRQLEEEERKRQMELEAKKQMELKRQRQFEEEQRLKKERELLEIQRKQREQETAERLKKEEQEALAKKEEEEKSKRNKVDNESYTQEINGKVDNLLEDLNAVLAEETETTPTMQNGTYVPERSTARAHDQLKKPLNIAKVESLGGSDLNDSISLSDEIAGLNTSNLSGEDQDEKNDLSFEKGDEVRYSNNFEGEAPHVYHEVSIIQEEAPAVSQKLILPEENNESEALIESKEEIKTMENIDDEVLLEILTDINWSIEDDADSMIERIDLRLAETEYLFNQNLLSLQKIGPNIRPYEDKVNDECHRIIPTLSLFLMEMSNFSNDIENVESQDNGLQVESANKKLLWNTLDELLKTVSLDEISLNQLLECPIREKNLPWMENQLNLLLKAFQAIGSDGNEVEYNLREISGLKQRLQFYEKVTKIFLNRIVEEMQKKFSNIRGQDISHDQMIRILTTLLIFSPLILFCKEISQKSYQAIVENWNVSIQPVYMELWTKKISQLQGIDTNDEKMNELSLSQLLNEWDTFRKERKTNDINPVFKNSFSLLTECLQTMRQECIVYQNFVEVFFHISSKHNFEEYIKHFNDPDAPPILLDTVKVMQSDREAAVIETQLVSRIFQPIVTRLSSYFVELVKAEPTVAPALTFYLENEIKSLESSNHEFLLSAVTRMYTQIKQVWSDNVEEQVLHFERISNATTNGEILPGILDLPVGLKNSEDLFQFAKRSMDIKDTDEGYESIELMNSSFRKLSIAATRSITHKEVNSSINPNLSDTAALNNDYMETISLLVNSNWLTEMLSMLNFNKDGIFDTSLQNVKKVFDVEKESYASFLLRDTMPKLTAFVYGVSNIIENTNNVNMTNPSRWAAYSRQNLENILLAYTSHEIETLVKRLHTHMVNDFGYHQENAINNVLCDKLWSCIQGQTVSLYLKLYTVIDKHYRGTNIRFTKNDIISAFEEYKNA
- Ratio (Deletedscore / WTscore) (bait BEM1-1): 0.9745
- Ratio (Deletedscore / WTscore) (bait BEM1-2): 0.478
- Ratio (Deletedscore / WTscore) (bait LSB3): 0.7503
- Ratio (Deletedscore / WTscore) (bait RVS167): 0.6394

B3: YMR109W_1 (protein, UniProt Q04439 1-1219, looked up)
Myosin-5: MAILKRGARKKVHQEPAKRSANIKKATFDSSKKKEVGVSDLTLLSKISDEAINENLKKRFLNATIYTYIGHVLISVNPFRDLGIYTDAVMNEYKGKNRLEVPPHVFAIAESMYYNMKSYNENQCVIISGESGAGKTEAAKRIMQYIAAASSTHTESIGKIKDMVLATNPLLESFGCAKTLRNNNSSRHGKYLEIKFNNQFEPCAGNITNYLLEKQRVVSQIKNERNFHIFYQFTKGASDAYRQTFGVQKPEQYVYTAAAGCISAETIDDLQDYQETLKAMRVIGLGQEEQDQIFRMLAAILWIGNVSFIENEEGNAQVRDTSVTDFVAYLLQIDSQLLIKSLVERIMETNHGMKRGSVYHVPLNIVQADAVRDALAKAIYNNLFDWIVSRVNKSLQAFPGAEKSIGILDIYGFEIFEHNSFEQICINYVNEKLQQIFIQLTLKSEQETYEREKIQWTPIKYFDNKVVCDLIEARRPPGIFAAMNDSVATAHADSNAADQAFAQRLNLFTTNPHFDLRSNKFVIKHYAGDVTYDIDGITDKNKDQLQKDLVELIGTTTNTFLATIFPDTVDRESKRRPPTAGDKIIKSANDLVETLSKAQPSYIRTIKPNETKSPNDYDDRQVLHQIKYLGLQENVRIRRAGFAYRQVFEKFVERFYLLSPHCSYAGDYTWQGDTLDAVKYILQDSSIPQQEYQLGVTSVFIKTPETLFALEHMRDRYWHNMAARIQRAWRRFLQRRIDAATKIQRTIRERKEGNKYEKLRDYGTKVLGGRKERRSMSLLGYRAFMGDYLSCNESKSKGAYIKRQVSIKEKVIFSIHGEALHTKFGRSAQRLKKTFLLTPTTLYIVGQTLVQNAMTYTQDYKIDVRNIQAVSLTNLQDDWVAIKLASSGQPDPLINTYFKTELITHLKRLNDKIQIKIGSAIEYQKKPGKLHSVKCQINESAPKYGDIYKSSTISVRRGNPPNSQVHKKPRKKSSISSGYHASSSQATRRPVSIAAAQHVPTAPASRHSKKPAPPPPGMQNKAATRRSVPNPASTLTASQSNARPSPPTAATRATPAATPAAAAMGSGRQANIPPPPPPPPPSSKPKEPMFEAAYDFPGSGSPSELPLKKGDVIYITREEPSGWSLGKLLDGSKEGWVPTAYMKPHSGNNNIPTPPQNRDVPKPVLNSVQHDNTSANVIPAAAQASLGDGLANALAARANKMRLESDDEEANEDEEEDDW
- Ratio (Deletedscore / WTscore) (bait BEM1-1): 0.9175
- Ratio (Deletedscore / WTscore) (bait BEM1-2): 0.7054
- Ratio (Deletedscore / WTscore) (bait BOI2): 0.9032
- Ratio (Deletedscore / WTscore) (bait HSE1): 0.9954
- Ratio (Deletedscore / WTscore) (bait NBP2): 0.9518
- Ratio (Deletedscore / WTscore) (bait PIN3): 0.6702

B4: YKL051W_1 (protein, UniProt P35735 1-353, looked up)
Protein SFK1: MIQFKSPGNWLFIVPWIAFIPWYGMLIAMLICWASQGHPIYWFMHSEQFPVYISDIGATNLRPLFISCAGWQGLGYVITVALEFFQRSGYLPFQLKKKDPSISDSTSYAEKLHSGKYLMPPYYTKDERNLIFAAFVLGSIGELALLFSSIFSTALYHRVHIAMVSVFVVFMFLSTCCLIAEYFLMGRHYASVHPLASPHFNPQSSEKSFNQDYNTVDELPWYKWKGHVWNKFTISATLKVIWLTLAVVWAICFGAINDRSKSACFEWLLAFWFGIIFMILSADFYLGGRYRQSRYFNHVESFSGYYKYDKALGLYHSEDVLPSDDNAGVIATETASSNIYNNSSSNESIQVVV
- Ratio (Deletedscore / WTscore) (bait BEM1-1): 1.076
- Ratio (Deletedscore / WTscore) (bait BEM1-2): 0.4799
- Ratio (Deletedscore / WTscore) (bait MYO3): 0.5607
- Ratio (Deletedscore / WTscore) (bait MYO5): 0.761

B5: YJL151C_2 (protein, UniProt P14359 1-133, looked up)
Protein SNA3: MDRDHINDHDHRMSYSINKDDLLLMVLAVFIPPVAVWKRKGMFNRDTLLNLLLFLLLFFPAIIHACYVVYETSSERSYDLSRRHATAPAVDRDLEAHPAEESQAQPPAYDEDDEAGADVPLMDNKQQLSSGRT
- Ratio (Deletedscore / WTscore) (bait ABP1): 1.204
- Ratio (Deletedscore / WTscore) (bait BZZ1-2): 1.485

B6: YDR166C_1 (protein, UniProt P89102 1-971, looked up)
Exocyst complex component SEC5: MDRFQIGDEQLLRFYQLKTINPTHSWAQDSSKLNNEEATSNELGVETSFDILKDFKYGNQISIDKESRAYLNDESLSYIRDPLNGQEMSKELQHLPNDSMRLNYLVNSKQFNVKAFLRDMHKQDSFNDLNNSLDRLDSDIQDQSIHLKQLVGKNFTKYVKIKNKLDQIYKEFDEKTNEKNQCDSPKENQINVESLNKKVDEVIRTTTFKLKPLMDNYQKILNYQATKKFIELNKFYFNLPKSLKRCLTNNDFNEFIIEYSKGLTLRRRFNQSSDASQSLVIKRIWTQIENLLVTYKDLIWNSLINSNFNIDQPQETILSLFSKLLNLENFINNNQRESESGNKNTTSSSNENPILRWMSIKMNGFQNELNELSGHMISKIIHSQRLILQNNTNQDKSQGCVELSYYLKINQLFQIISDTGKDSEGLKSTVEPNKVNTISGTSYLNLNCQPSSQGLTDSPTIIEMWLLILKYINDLWKICDQFIEFWEHIEKFLDGTYQNSIINEKRKENILIGDSNIIESYQKSLILKEEQINEVRLKGEEFITSVSQNLISFFTSSQSSLPSSLKDSTGDITRSNKDSGSPLDYGFIPPNCNGLSCLRYLPKIVEPILKFSTELAQLNITTNGITICRNTLSTIINRCVGAISSTKLRDISNFYQLENWQVYETVTFSSKSQDSSKNLTFEYGVTQFPEIVTSFQEVSIKTTRDLLFAYEKLPIINGISVVSYPSKQLLTGIEIQQIISMEAVLEAILKNAAKDKDNPRNSHTILTLTNLQYFRECAFPNILQYFDDAFEWNLASKNLELFSLLSKMESSIFGNYLSDLKINLRDTLEEKFHEINWPMYTSNSFRVGDYIIEALMILIVVHSECFRIGPQLIHKILIETQIFIARYLFEAFKPYVGNLSNDGSLQIIVDLEFFQKVMGPLLEKDTEATLRACLQNCFQNDTNRLQKCINEINPIVSANLKRTAIQFAAFS
- Ratio (Deletedscore / WTscore) (bait BEM1-2): 0.5345
- Ratio (Deletedscore / WTscore) (bait BOI2): 0.7084

B7: YHR064C_1 (protein, UniProt P38788 1-538, looked up)
Ribosome-associated complex …: MSSPVIGITFGNTSSSIAYINPKNDVDVIANPDGERAIPSALSYVGEDEYHGGQALQQLIRNPKNTIINFRDFIGLPFDKCDVSKCANGAPAVEVDGKVGFVISRGEGKEEKLTVDEVVSRHLNRLKLAAEDYIGSAVKEAVLTVPTNFSEEQKTALKASAAKIGLQIVQFINEPSAALLAHAEQFPFEKDVNVVVADFGGIRSDAAVIAVRNGIFTILATAHDLSLGGDNLDTELVEYFASEFQKKYQANPRKNARSLAKLKANSSITKKTLSNATSATISIDSLADGFDYHASINRMRYELVANKVFAQFSSFVDSVIAKAELDPLDIDAVLLTGGVSFTPKLTTNLEYTLPESVEILGPQNKNASNNPNELAASGAALQARLISDYDADELAEALQPVIVNTPHLKKPIGLIGAKGEFHPVLLAETSFPVQKKLTLKQAKGDFLIGVYEGDHHIEEKTLEPIPKEENAEEDDESEWSDDEPEVVREKLYTLGTKLMELGIKNANGVEIIFNINKDGALRVTARDLKTGNAVKGEL
- Ratio (Deletedscore / WTscore) (bait BEM1-1): 0.9929
- Ratio (Deletedscore / WTscore) (bait BUD14): 0.7471
